For assay [1], the target named is 3 plasmid ICs (as tested with N6). In words: native gel or EMSA. (In general: In EMSA bound probe runs differently from free probe, usually more slowly.)
Assay [2] concerns the target 48d.cl IC, fusion version (gpCore + 48d heavy chain fusion, Fab-Fab-crosslinked K126C) (HIV-1 strain BG505). In words: native gel or EMSA.
In assay [3] the target is wtA32. Kind of assay: not stated; KD of wtA32 in Table 1, no footnote and no method told.
Assay [4] concerns the target 7mutVRC01. In words: SPR; OpenSPR-XT; C-terminally Strep-tagged antibody immobilised on Strep-Tactin XT over biotin sensor/streptavidin/biotinylated Strep-Tag peptide; analyte monovalent gpCore or ICs; 1:1 fit model; apparent kinetic values.
Assay [5] deals with 2mutVRC01. Described as above.
2mutVRC01, sequence (light, as listed by the source, chain 2 of 2, other chains not shown): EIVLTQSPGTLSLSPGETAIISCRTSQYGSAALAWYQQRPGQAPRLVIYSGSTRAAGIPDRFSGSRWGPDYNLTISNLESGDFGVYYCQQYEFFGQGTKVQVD
Assay [6] addresses 3mutA32. The description is as above.
The target of assay [7] is GTii divalent immunogen, Fab-Fab-crosslinked version (HIV-1 strain BG505). In words: native gel or EMSA.
The target of assay [8] is GTi divalent immunogen, Fab-Fab-crosslinked version (HIV-1 strain BG505). In words: native gel or EMSA.
Assay [9] concerns the target GTiii divalent immunogen, Fab-Fab-crosslinked version (HIV-1 strain BG505). In words: native gel or EMSA.

3mutA32, sequence (heavy, as listed by the source, chain 1 of 2): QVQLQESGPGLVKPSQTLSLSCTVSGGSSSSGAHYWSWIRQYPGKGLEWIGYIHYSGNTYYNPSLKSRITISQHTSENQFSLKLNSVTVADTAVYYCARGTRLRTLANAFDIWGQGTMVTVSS
3mutA32, sequence (light, as listed by the source, chain 2 of 2): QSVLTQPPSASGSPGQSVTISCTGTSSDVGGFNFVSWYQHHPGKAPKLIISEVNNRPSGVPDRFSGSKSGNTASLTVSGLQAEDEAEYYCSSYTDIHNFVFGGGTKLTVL
7mutVRC01, sequence (heavy, as listed by the source, chain 1 of 2): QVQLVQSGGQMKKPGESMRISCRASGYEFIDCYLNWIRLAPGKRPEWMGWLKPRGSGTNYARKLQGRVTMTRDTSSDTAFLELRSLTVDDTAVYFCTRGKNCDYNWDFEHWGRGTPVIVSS
7mutVRC01, sequence (light, as listed by the source, chain 2 of 2): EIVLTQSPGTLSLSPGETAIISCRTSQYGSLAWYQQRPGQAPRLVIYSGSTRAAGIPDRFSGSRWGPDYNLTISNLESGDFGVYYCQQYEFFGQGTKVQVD
wtA32, sequence (heavy, as listed by the source, chain 1 of 2): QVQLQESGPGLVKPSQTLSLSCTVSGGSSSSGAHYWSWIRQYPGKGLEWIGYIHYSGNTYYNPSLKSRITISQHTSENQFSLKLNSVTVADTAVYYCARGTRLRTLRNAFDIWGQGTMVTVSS
wtA32, sequence (light, as listed by the source, chain 2 of 2): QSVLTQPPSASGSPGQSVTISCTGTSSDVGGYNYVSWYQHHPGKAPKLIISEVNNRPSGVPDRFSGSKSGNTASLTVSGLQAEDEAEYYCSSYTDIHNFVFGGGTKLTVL

As for N6 (antibody), the stoichiometry N in assay [1] and in assay [2] was 1 each time.
For “gpCore (core gp120 of strain BG505), monovalent (domain or fragment)”, the Kd in assay [3] is 0.4 nM; in assay [4], 7000 nM; in assay [5] it was 200 nM; in assay [6], 200 nM.
With “monomeric VRC01 IgM unmutated common ancestor (UCA) (antibody)”, the figures for the Kd in assay [7], in assay [8] and in assay [9] were 60 nM, 800 to 1000 nM and 25 nM, respectively.

One may read the stoichiometry N as the number of molecules, sites or subunits per partner or assembly.

(Values after publication PMC12846365.)
